Data reported in paper doi:10.1101/2022.10.04.510915.

How the values were obtained:
[1] = target: JetC (E. coli GF4-3), as subunit of the JetABC complex (E. coli strain GF4-3); assay: cryo-EM structure
[2] = target: JetB (E. coli GF4-3), as subunit of the JetABC complex (E. coli strain GF4-3); assay: cryo-EM structure

stoichiometry N [1] | stoichiometry N [2] | Substance
2 |  | JetC (E. coli GF4-3), as subunit of the JetABC complex (natural protein)
 | 2 | JetB (E. coli GF4-3), as subunit of the JetABC complex (natural protein)
